From publication PMC3182996
pKd: −log10 of the molar value.

Tests used:
[1] = target: Aβ^40Arc fibrils (pre-formed fibrils of Aβ1–40 Glu22Gly); experiment: SPR; co-injection: 2 µM Aβ injected for 30 s over immobilised pre-formed fibrils at 20 µl/min in PBS at 25°C, at once followed by 0–400 nM Aβ; the concentration that gives a plateau (critical concentration) is taken as the binding constant
[2] = target: Aβ^40WT fibrils (pre-formed fibrils of wild type Aβ1–40) (UniProt P05067); experiment: as above

Aβ1–40 Glu22Gly (Arctic variant), monomeric (peptide)
pKd [1]: 7.00 | pKd [2]: 7.30
